Experimental data as given in US6001988, “High affinity nucleic acid ligands to lectins” (NeXstar Pharmaceuticals, Inc.).

How the values were obtained:
[1] = target: T1, L-selectin (LS-Rg) (Homo sapiens, UniProt P14151 P14151:39-332); test: filter; room temp; 970 pM at 37 C; details: tags: human IgG2 Fc fusion (provided by A. Varki); label: 32P; hairpin
T1 chain: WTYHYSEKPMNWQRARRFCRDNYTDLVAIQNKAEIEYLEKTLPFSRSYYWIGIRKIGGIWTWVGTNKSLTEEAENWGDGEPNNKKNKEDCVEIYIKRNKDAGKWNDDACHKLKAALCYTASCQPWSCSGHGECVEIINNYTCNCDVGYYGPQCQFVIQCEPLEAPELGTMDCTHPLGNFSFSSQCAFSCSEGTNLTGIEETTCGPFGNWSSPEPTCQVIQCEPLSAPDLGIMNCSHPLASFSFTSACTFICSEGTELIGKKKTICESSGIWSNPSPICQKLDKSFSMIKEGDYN

[2] = target: T1, L-selectin (LS-Rg); test: filter; room temp; 3.7 nM at 37 C; details: tags: human IgG2 Fc fusion (provided by A. Varki); label: 32P; hairpin
[3] = target: T2, E-selectin (ES-Rg) (Homo sapiens, UniProt P16581 P16581:22-556); test: filter; room temp, Ca/Mg buffer; details: tags: extracellular domain fused to human IgG1 Fc (provided by A. Varki); chain copies: 2 (dimeric Fc chimera, inferred)
T2 chain: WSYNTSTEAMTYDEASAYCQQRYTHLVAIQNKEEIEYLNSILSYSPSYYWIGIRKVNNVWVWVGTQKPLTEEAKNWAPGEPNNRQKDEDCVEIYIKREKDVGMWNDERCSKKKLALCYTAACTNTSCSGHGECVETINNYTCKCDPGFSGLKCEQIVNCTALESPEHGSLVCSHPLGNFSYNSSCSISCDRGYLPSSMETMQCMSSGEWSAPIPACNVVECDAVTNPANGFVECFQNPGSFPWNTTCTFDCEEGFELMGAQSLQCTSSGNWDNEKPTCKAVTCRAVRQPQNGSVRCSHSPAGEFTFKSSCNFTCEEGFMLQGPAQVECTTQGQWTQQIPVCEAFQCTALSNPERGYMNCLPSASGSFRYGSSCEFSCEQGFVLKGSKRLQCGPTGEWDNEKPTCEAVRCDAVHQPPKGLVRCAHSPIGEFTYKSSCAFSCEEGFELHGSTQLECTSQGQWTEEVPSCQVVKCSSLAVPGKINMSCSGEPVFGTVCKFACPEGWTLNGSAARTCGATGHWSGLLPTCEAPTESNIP

[4] = target: T3, P-selectin (PS-Rg) (Homo sapiens, UniProt P16109 P16109:42-321); test: filter; room temp, Ca/Mg buffer; details: tags: lectin, EGF and first two CRD domains fused to human IgG1 Fc (provided by A. Varki); chain copies: 2 (dimeric Fc chimera, inferred)
T3 chain: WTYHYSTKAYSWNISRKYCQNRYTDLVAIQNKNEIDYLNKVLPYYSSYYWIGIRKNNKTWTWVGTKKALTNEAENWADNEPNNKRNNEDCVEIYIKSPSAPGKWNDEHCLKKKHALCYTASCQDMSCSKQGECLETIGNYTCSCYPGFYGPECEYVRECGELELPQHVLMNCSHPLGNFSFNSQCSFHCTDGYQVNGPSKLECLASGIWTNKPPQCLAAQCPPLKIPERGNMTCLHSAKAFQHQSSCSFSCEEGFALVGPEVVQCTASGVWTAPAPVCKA

[5] = target: T1, L-selectin (LS-Rg); test: filter; room temp; 1.2 nM at 37 C; Table XIV prints 110 nM; details: tags: human IgG2 Fc fusion (provided by A. Varki); label: 32P; hairpin
[6] = target: T1, L-selectin (LS-Rg); test: filter; room temp; 380 pM at 37 C; table prints SEQ 155, Table XII and text give 133; details: tags: human IgG2 Fc fusion (provided by A. Varki); label: 32P; hairpin
[7] = target: T1, L-selectin (LS-Rg); test: filter; room temp; 2.0 nM at 37 C; details: tags: human IgG2 Fc fusion (provided by A. Varki); label: 32P; hairpin
[8] = target: T1, L-selectin (LS-Rg); test: filter; room temp; 3.4 nM at 37 C; details: tags: human IgG2 Fc fusion (provided by A. Varki); label: 32P
[9] = target: T1, L-selectin (LS-Rg); test: filter; room temp; 8.5 nM at 37 C; details: tags: human IgG2 Fc fusion (provided by A. Varki); label: 32P; hairpin
[10] = target: T1, L-selectin (LS-Rg); test: filter; room temp; 1.0 nM at 37 C; details: tags: human IgG2 Fc fusion (provided by A. Varki); label: 32P; hairpin
[11] = target: T1, L-selectin (LS-Rg); test: filter; room temp; 1.6 nM at 37 C; details: tags: human IgG2 Fc fusion (provided by A. Varki); label: 32P

B1: 193 (ssDNA)
DNA: CTACCTACGATCTGACTAGCCCAGGAGCACAGTACAAGGTGTTAAACGTAATGTCTGGTGCTTACTCTCATGTAGTTCC
Kd [1]: 0.088 nM

B2: 204 (ssDNA)
DNA: CTACCTACGATCTGACTAGCGGAACACGTGAGGTTTACAAGGCACTCGACGTAAACACTTGCTTACTCTCATGTAGTTCC
Kd [2]: 0.1 nM | Kd [3]: 1500 nM | Kd [4]: 2900 nM

B3: 201 (ssDNA)
DNA: CTACCTACGATCTGACTAGCCAAGGTAACCAGTACAAGGTGCTAAACGTAATGGCTTCGGCTTACTCTCATGTAGTTCC
Kd [5]: 0.11 nM | Kd [3]: 37 nM | Kd [4]: 1000 nM

B4: 208 (ssDNA)
DNA: CTACCTACGATCTGACTAGCCACGTTTCAAGGGGTTACACGAAACGATTCACTCCTTGGCGCTTACTCTCATGTAGTTCC
Kd [6]: 0.11 nM

B5: 182 (ssDNA)
DNA: CTACCTACGATCTGACTAGCTAGTGCTCCACGTATTCAAGGTGCTAAACGAAGACGGCCTGCTTACTCTCATGTAGTTCC
Kd [7]: 0.13 nM

B6: 196 (ssDNA)
DNA: CTACCTACGATCTGACTAGCTGGCGGTACGGGCCGTGCACCCACTTACCTGGGAAGTGAGCTTACTCTCATGTAGTTCC
Kd [8]: 0.13 nM | Kd [3]: 50 nM | Kd [4]: 3400 nM

B7: 108 (ssDNA)
DNA: CTACCTACGATCTGACTAGCGAGTAGCCAAGGCGTTAGACGGAGGGGGAATGTGAGCACAGCTTACTCTCATGTAGTTCC
Kd [9]: 0.16 nM

B8: 183 (ssDNA)
DNA: CTACCTACGATCTGACTAGCGGCATCCCTGAGTCATTACAAGGTTCTTAACGTAATGTACGCTTACTCTCATGTAGTTCC
Kd [10]: 0.17 nM

B9: 239 (ssDNA)
DNA: CTACCTACGATCTGACTAGCCCACAGACAATCGCAGTCCCCGTGTAGCTCTGGGTGTCTGCTTACTCTCATGTAGTTCC
Kd [11]: 0.17 nM
